Test results as given in publication PMC9482650, “Quantitative fragmentomics allow affinity mapping of interactomes” (Nature Communications, 2022).

Key:
Assay in all cases: holdup assay
Set-up in all cases: key: below the threshold = too weak to quantify, mostly under pKd 3.1 to 4
TJP1_2, Q07157 = target: TJP1_2, Q07157
LDB3, O75112 = target: LDB3, O75112
PDZRN3_1, Q9UPQ7 = target: T1, PDZRN3_1, Q9UPQ7
T1 sequence (Q9UPQ7 244-349, limits assumed, looked up): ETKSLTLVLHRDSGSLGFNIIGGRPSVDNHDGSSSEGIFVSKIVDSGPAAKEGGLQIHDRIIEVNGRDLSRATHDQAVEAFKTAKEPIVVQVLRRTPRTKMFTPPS

RHPN1, Q8TCX5 = target: T2, RHPN1, Q8TCX5
T2 sequence (Q8TCX5 508-602, limits assumed, looked up): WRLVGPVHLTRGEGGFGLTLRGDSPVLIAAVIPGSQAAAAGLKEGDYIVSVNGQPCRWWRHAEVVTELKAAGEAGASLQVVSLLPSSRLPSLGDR

NHERF3_3, Q5T2W1 = target: T3, NHERF3_3, Q5T2W1
T3 sequence (Q5T2W1 238-333, limits assumed, looked up): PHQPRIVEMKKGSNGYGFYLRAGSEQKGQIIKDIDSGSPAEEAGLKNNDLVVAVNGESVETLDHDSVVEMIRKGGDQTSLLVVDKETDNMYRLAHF

ARHGAP21, Q5T5U3 = target: T4, ARHGAP21, Q5T5U3
T4 sequence (Q5T5U3 45-169, limits assumed, looked up): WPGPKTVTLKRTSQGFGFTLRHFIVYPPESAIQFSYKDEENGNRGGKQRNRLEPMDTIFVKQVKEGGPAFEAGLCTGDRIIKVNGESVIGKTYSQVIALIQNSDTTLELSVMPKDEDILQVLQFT

MAST2, Q6P0Q8 = target: MAST2, Q6P0Q8
Chain of MAST2, Q6P0Q8 (Q6P0Q8 1099-1202): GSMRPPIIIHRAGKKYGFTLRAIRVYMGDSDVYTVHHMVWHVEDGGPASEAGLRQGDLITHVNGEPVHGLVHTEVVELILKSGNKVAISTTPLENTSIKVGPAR

ARHGEF11, O15085 = target: T5, ARHGEF11, O15085
T5 sequence (O15085 42-136, limits assumed, looked up): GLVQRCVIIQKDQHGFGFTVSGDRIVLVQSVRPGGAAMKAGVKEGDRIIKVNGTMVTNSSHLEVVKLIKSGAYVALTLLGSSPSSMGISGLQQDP

DLG5_1, Q8TDM6 = target: DLG5_1, Q8TDM6
Chain of DLG5_1, Q8TDM6 (Q8TDM6 617-713): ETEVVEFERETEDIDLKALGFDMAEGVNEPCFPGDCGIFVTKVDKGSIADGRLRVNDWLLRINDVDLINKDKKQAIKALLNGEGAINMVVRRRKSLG

IL16_4, Q14005 = target: IL16_4, Q14005
Chain of IL16_4, Q14005 (Q14005 1229-1329): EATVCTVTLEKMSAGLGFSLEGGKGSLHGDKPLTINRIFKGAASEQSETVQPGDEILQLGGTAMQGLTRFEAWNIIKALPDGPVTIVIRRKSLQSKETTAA

MPP6, Q9NZW5 = target: T6, MPP6, Q9NZW5
T6 sequence (Q9NZW5 125-219, limits assumed, looked up): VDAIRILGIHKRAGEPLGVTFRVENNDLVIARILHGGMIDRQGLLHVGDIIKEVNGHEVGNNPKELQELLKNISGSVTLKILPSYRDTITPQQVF

NHERF4_4, Q86UT5 = target: NHERF4_4, Q86UT5
Chain of NHERF4_4, Q86UT5 (Q86UT5 464-550): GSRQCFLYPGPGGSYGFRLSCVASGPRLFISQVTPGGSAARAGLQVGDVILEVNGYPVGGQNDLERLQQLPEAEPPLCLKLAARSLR

NHERF2_2, Q15599 = target: NHERF2_2, Q15599
Chain of NHERF2_2, Q15599 (Q15599 142-238): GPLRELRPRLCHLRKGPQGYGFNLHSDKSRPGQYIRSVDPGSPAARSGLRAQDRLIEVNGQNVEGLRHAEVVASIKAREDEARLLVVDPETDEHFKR

MAST1, Q9Y2H9 = target: MAST1, Q9Y2H9
Chain of MAST1, Q9Y2H9 (Q9Y2H9 962-1065): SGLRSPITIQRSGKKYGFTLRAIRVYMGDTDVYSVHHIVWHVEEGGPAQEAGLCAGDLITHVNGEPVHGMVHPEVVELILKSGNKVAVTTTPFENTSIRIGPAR

PCLO, Q9Y6V0 = target: T7, PCLO, Q9Y6V0
T7 sequence (Q9Y6V0 4491-4600, limits assumed, looked up): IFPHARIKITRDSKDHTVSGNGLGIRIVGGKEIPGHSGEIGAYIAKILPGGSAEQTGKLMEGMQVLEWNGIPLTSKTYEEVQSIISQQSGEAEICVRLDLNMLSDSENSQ

DLG3_2, Q92796 = target: T8, DLG3_2, Q92796
T8 sequence (Q92796 221-321, limits assumed, looked up): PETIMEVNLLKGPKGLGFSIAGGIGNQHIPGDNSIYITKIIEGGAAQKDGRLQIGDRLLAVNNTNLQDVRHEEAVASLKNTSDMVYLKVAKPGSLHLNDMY

IL16_1, Q14005 = target: IL16_1, Q14005
Chain of IL16_1, Q14005 (Q14005 210-306): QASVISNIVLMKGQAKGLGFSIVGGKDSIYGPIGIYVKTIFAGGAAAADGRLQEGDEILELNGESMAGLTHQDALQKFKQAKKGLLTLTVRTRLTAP

PICK1, Q9NRD5 = target: PICK1, Q9NRD5
Chain of PICK1, Q9NRD5 (Q9NRD5 17-115): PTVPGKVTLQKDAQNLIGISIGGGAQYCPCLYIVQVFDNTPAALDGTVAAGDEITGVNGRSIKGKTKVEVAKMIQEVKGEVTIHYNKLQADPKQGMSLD

SHANK1, Q9Y566 = target: T9, SHANK1, Q9Y566; conditions: plain residues with an end cap or a label only (N-terminal biotin on a linker: ttds)
T9 sequence (Q9Y566 658-767, limits assumed, looked up): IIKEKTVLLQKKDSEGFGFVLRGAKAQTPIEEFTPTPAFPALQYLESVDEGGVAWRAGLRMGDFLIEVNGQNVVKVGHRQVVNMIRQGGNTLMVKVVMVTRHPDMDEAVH

Inadl_8, Q8NI35 = target: Inadl_8, Q8NI35
Chain of Inadl_8, Q8NI35 (Q8NI35 1425-1530): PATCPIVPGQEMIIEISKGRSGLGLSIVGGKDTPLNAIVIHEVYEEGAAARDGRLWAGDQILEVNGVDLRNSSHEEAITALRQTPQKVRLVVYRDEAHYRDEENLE

GRIP2_5, Q9C0E4 = target: GRIP2_5, Q9C0E4
Chain of GRIP2_5, Q9C0E4 (Q9C0E4 544-642): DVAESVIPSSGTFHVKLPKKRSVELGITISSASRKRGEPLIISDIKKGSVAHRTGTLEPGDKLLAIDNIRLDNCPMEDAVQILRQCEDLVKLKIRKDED

SIPA1L2, Q9P2F8 = target: T10, SIPA1L2, Q9P2F8
T10 sequence (Q9P2F8 945-1036, limits assumed, looked up): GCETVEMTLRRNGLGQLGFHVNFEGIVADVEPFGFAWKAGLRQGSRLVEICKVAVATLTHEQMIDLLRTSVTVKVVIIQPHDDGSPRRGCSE

LNX2_2, Q8N448 = target: T11, LNX2_2, Q8N448
T11 sequence (Q8N448 334-432, limits assumed, looked up): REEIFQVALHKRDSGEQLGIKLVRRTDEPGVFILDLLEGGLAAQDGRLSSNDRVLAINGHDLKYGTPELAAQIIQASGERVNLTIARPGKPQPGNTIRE

Inadl_2, Q8NI35 = target: Inadl_2, Q8NI35
Chain of Inadl_2, Q8NI35 (Q8NI35 238-335): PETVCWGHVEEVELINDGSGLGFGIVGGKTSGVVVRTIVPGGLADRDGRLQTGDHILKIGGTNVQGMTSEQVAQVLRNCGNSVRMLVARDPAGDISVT

GORASP1, Q9BQQ3 = target: GORASP1, Q9BQQ3
Chain of GORASP1, Q9BQQ3 (Q9BQQ3 1-208): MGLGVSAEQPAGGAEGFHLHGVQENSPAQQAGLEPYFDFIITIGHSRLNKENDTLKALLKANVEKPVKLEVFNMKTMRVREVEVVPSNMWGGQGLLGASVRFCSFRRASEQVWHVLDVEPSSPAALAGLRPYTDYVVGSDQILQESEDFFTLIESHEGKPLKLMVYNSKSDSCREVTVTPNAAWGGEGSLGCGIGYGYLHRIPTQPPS

SNX27, Q96L92 = conditions: plain residues with an end cap or a label only (N-terminal biotin on a linker: ttds)
PTPN3, P26045 = target: PTPN3, P26045
Chain of PTPN3, P26045 (P26045 505-587): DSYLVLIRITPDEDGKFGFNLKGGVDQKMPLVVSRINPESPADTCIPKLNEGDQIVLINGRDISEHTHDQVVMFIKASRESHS

[1] = plain residues with an end cap or a label only (N-terminal biotin on a linker: ttds)
[2] = plain residues with an end cap or a label only (N-terminal biotin on a linker: ahx)

Chain of TJP1_2, Q07157 (Q07157 181-274): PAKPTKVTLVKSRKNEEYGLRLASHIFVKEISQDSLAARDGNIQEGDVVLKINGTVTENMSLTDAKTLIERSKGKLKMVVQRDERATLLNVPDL
Chain of LDB3, O75112 (O75112 1-94): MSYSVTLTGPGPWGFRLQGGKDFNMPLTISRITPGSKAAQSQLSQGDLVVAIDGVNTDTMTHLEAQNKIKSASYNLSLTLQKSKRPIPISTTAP

B1: PPP1R13L, Q8WUF5 (peptide)
chain: PRVKPQRSKV
- pKd (TJP1_2, Q07157; [1]): below the threshold
- pKd (LDB3, O75112; [1]): below the threshold
- pKd (PDZRN3_1, Q9UPQ7; [1]): below the threshold
- pKd (RHPN1, Q8TCX5; [1]): below the threshold
- pKd (NHERF3_3, Q5T2W1; [1]): below the threshold
- pKd (ARHGAP21, Q5T5U3; [1]): below the threshold
- pKd (MAST2, Q6P0Q8; [1]): 3.82
- pKd (ARHGEF11, O15085; [1]): 3.64
- pKd (DLG5_1, Q8TDM6; [1]): below the threshold
- pKd (IL16_4, Q14005; [1]): below the threshold
- pKd (MPP6, Q9NZW5; [1]): below the threshold
- pKd (NHERF4_4, Q86UT5; [1]): below the threshold
- pKd (NHERF2_2, Q15599; [1]): below the threshold
- pKd (MAST1, Q9Y2H9; [1]): 3.71
- pKd (PCLO, Q9Y6V0; [1]): below the threshold
- pKd (DLG3_2, Q92796; [1]): 3.73
- pKd (IL16_1, Q14005; [1]): below the threshold
- pKd (PICK1, Q9NRD5; [1]): below the threshold
- pKd (SHANK1, Q9Y566): 3.64
- pKd (Inadl_8, Q8NI35; [1]): 4.35
- pKd (GRIP2_5, Q9C0E4; [1]): below the threshold
- pKd (SIPA1L2, Q9P2F8; [1]): below the threshold
- pKd (LNX2_2, Q8N448; [1]): below the threshold
- pKd (Inadl_2, Q8NI35; [1]): below the threshold
- pKd (GORASP1, Q9BQQ3; [1]): below the threshold
- pKd (SNX27, Q96L92): below the threshold
- pKd (PTPN3, P26045; [1]): below the threshold

B2: PLCB4, Q15147 (peptide)
chain: EMDRRPATVV
- pKd (TJP1_2, Q07157; [1]): below the threshold
- pKd (LDB3, O75112; [1]): below the threshold
- pKd (PDZRN3_1, Q9UPQ7; [1]): 4.08
- pKd (RHPN1, Q8TCX5; [1]): 3.74
- pKd (NHERF3_3, Q5T2W1; [1]): below the threshold
- pKd (ARHGAP21, Q5T5U3; [1]): 3.64
- pKd (MAST2, Q6P0Q8; [1]): 3.89
- pKd (ARHGEF11, O15085; [1]): 4.6
- pKd (DLG5_1, Q8TDM6; [1]): below the threshold
- pKd (IL16_4, Q14005; [1]): below the threshold
- pKd (MPP6, Q9NZW5; [1]): below the threshold
- pKd (NHERF4_4, Q86UT5; [1]): below the threshold
- pKd (NHERF2_2, Q15599; [1]): below the threshold
- pKd (MAST1, Q9Y2H9; [1]): 4.48
- pKd (PCLO, Q9Y6V0; [1]): 3.71
- pKd (DLG3_2, Q92796; [1]): 4.24
- pKd (IL16_1, Q14005; [1]): below the threshold
- pKd (PICK1, Q9NRD5; [1]): below the threshold
- pKd (SHANK1, Q9Y566): below the threshold
- pKd (GRIP2_5, Q9C0E4; [1]): below the threshold
- pKd (SIPA1L2, Q9P2F8; [1]): below the threshold
- pKd (LNX2_2, Q8N448; [1]): 4.93
- pKd (GORASP1, Q9BQQ3; [1]): 4.06
- pKd (SNX27, Q96L92): below the threshold
- pKd (PTPN3, P26045; [1]): below the threshold

B3: ARHGEF7, Q14155;Q14155-1 (peptide)
chain: NDPAWDETNL
- pKd (TJP1_2, Q07157; [1]): below the threshold
- pKd (LDB3, O75112; [1]): below the threshold
- pKd (PDZRN3_1, Q9UPQ7; [1]): 3.92
- pKd (RHPN1, Q8TCX5; [1]): 4.6
- pKd (NHERF3_3, Q5T2W1; [1]): below the threshold
- pKd (MAST2, Q6P0Q8; [1]): 5.98
- pKd (DLG5_1, Q8TDM6; [1]): below the threshold
- pKd (IL16_4, Q14005; [1]): below the threshold
- pKd (MPP6, Q9NZW5; [1]): below the threshold
- pKd (NHERF4_4, Q86UT5; [1]): below the threshold
- pKd (NHERF2_2, Q15599; [1]): 4.81
- pKd (MAST1, Q9Y2H9; [1]): 4.92
- pKd (PCLO, Q9Y6V0; [1]): below the threshold
- pKd (DLG3_2, Q92796; [1]): below the threshold
- pKd (IL16_1, Q14005; [1]): below the threshold
- pKd (PICK1, Q9NRD5; [1]): below the threshold
- pKd (SHANK1, Q9Y566): 4.79
- pKd (Inadl_8, Q8NI35; [1]): below the threshold
- pKd (GRIP2_5, Q9C0E4; [1]): below the threshold
- pKd (SIPA1L2, Q9P2F8; [1]): below the threshold
- pKd (LNX2_2, Q8N448; [1]): below the threshold
- pKd (Inadl_2, Q8NI35; [1]): below the threshold
- pKd (GORASP1, Q9BQQ3; [1]): below the threshold
- pKd (SNX27, Q96L92): 5.66
- pKd (PTPN3, P26045; [1]): 4.44

B4: GRIN1, Q05586;Q05586-2 (peptide)
chain: LSDPSVSTVV
- pKd (TJP1_2, Q07157; [2]): below the threshold
- pKd (LDB3, O75112; [2]): below the threshold
- pKd (PDZRN3_1, Q9UPQ7; [2]): below the threshold
- pKd (RHPN1, Q8TCX5; [2]): 4.47
- pKd (NHERF3_3, Q5T2W1; [2]): below the threshold
- pKd (ARHGAP21, Q5T5U3; [2]): below the threshold
- pKd (MAST2, Q6P0Q8; [2]): 4.25
- pKd (ARHGEF11, O15085; [2]): 4.01
- pKd (DLG5_1, Q8TDM6; [2]): below the threshold
- pKd (IL16_4, Q14005; [2]): below the threshold
- pKd (MPP6, Q9NZW5; [2]): below the threshold
- pKd (NHERF4_4, Q86UT5; [2]): below the threshold
- pKd (NHERF2_2, Q15599; [2]): below the threshold
- pKd (MAST1, Q9Y2H9; [2]): below the threshold
- pKd (PCLO, Q9Y6V0; [2]): below the threshold
- pKd (DLG3_2, Q92796; [2]): 4.58
- pKd (IL16_1, Q14005; [2]): below the threshold
- pKd (PICK1, Q9NRD5; [2]): below the threshold
- pKd (Inadl_8, Q8NI35; [2]): below the threshold
- pKd (GRIP2_5, Q9C0E4; [2]): below the threshold
- pKd (SIPA1L2, Q9P2F8; [2]): below the threshold
- pKd (LNX2_2, Q8N448; [2]): 4.64
- pKd (Inadl_2, Q8NI35; [2]): below the threshold
- pKd (GORASP1, Q9BQQ3; [2]): below the threshold
- pKd (PTPN3, P26045; [2]): below the threshold
